Sequences and labels used below:
B1: SEQ ID NO 338 (peptide)
peptide: TAFTSWEEYLDWVGSGQCYPWCRL
B2: SEQ ID NO 339 (peptide)
peptide: TAFTSWEEYLDWVGSGCWTYLRGGCSVT
B3: SEQ ID NO 341 (peptide)
peptide: TAFTSWEEYLDWVGSGQTTYLRVSSS
B4: SEQ ID NO 333 (peptide)
peptide: TAFTSWEEYLDWVGSGDCNLWGDDGKYRLCF
B5: SEQ ID NO 340 (peptide)
peptide: TAFTSWEEYLDWVGSGPRTYLRGLVD
B6: SEQ ID NO 336 (peptide)
peptide: TAFTSWEEYLDWVGSGSYRGAWSVFGGSTD
B7: SEQ ID NO 334 (peptide)
peptide: TAFTSWEEYLDWVGSGCVKVGLSWIGDCNS
B8: SEQ ID NO 343 (peptide)
peptide: TAFTSWEEYLDWVGSGRGEVYDKGGVIVHL
B9: SEQ ID NO 342 (peptide)
peptide: TAFTSWEEYLDWVGSGQISYLRNA
modifications: not fully specified; also: Q (1) D-amino acid, place in chain unclear (phage-displayed)
B10: SEQ ID NO 346 (peptide)
peptide: TAFTSWEEYLDWVGSGQELPNHRRLS
B11: SEQ ID NO 335 (peptide)
peptide: TAFTSWEEYLDWVGSGGVLGVGGMWIA
B12: SEQ ID NO 345 (peptide)
peptide: TAFTSWEEYLDWVGSGGDCGYHYMCSMT
B13: SEQ ID NO 344 (peptide)
peptide: TAFTSWEEYLDWVGSGGREMRSVIQM
B14: SEQ ID NO 337 (peptide)
peptide: TAFTSWEEYLDWVGSGCMEAWQCSLA
B15: Compound 239 (peptide)
peptide: WNLV[hArg]IGQR
modifications: also: further groups not given here
notes: Structure printed only as a drawing
B16: Compound 240 (peptide)
peptide: WNLV[hArg]IGNR
modifications: also: further groups not given here
notes: as for B15
B17: Compound 227 (peptide)
peptide: Ac-ESFPGWNLV[hArg]IGLLR-NH2
SMILES: CC[C@H](C)[C@H](NC(=O)[C@H](CCCCNC(=N)N)NC(=O)[C@@H](NC(=O)[C@H](CC(C)C)NC(=O)[C@H](CC(N)=O)NC(=O)[C@H](Cc1c[nH]c2ccccc12)NC(=O)CNC(=O)[C@@H]1CCCN1C(=O)[C@H](Cc1ccccc1)NC(=O)[C@H](CO)NC(=O)[C@H](CCC(=O)O)NC(C)=O)C(C)C)C(=O)NCC(=O)N[C@@H](CC(C)C)C(=O)N[C@@H](CC(C)C)C(=O)N[C@@H](CCCNC(=N)N)C(N)=O
B18: Compound 230 (peptide)
peptide: Ac-DSYPGWNLV[hArg]IGLLR-NH2
SMILES: CC[C@H](C)[C@H](NC(=O)[C@H](CCCCNC(=N)N)NC(=O)[C@@H](NC(=O)[C@H](CC(C)C)NC(=O)[C@H](CC(N)=O)NC(=O)[C@H](Cc1c[nH]c2ccccc12)NC(=O)CNC(=O)[C@@H]1CCCN1C(=O)[C@H](Cc1ccc(O)cc1)NC(=O)[C@H](CO)NC(=O)[C@H](CC(=O)O)NC(C)=O)C(C)C)C(=O)NCC(=O)N[C@@H](CC(C)C)C(=O)N[C@@H](CC(C)C)C(=O)N[C@@H](CCCNC(=N)N)C(N)=O
B19: Compound 236 (peptide)
peptide: WNLV[hArg]IG-NH2
modifications: N-terminus assumed
SMILES: CC[C@H](C)[C@H](NC(=O)[C@H](CCCCNC(=N)N)NC(=O)[C@@H](NC(=O)[C@H](CC(C)C)NC(=O)[C@H](CC(N)=O)NC(=O)[C@@H](N)Cc1c[nH]c2ccccc12)C(C)C)C(=O)NCC(N)=O
notes: also called WNLV(homoR)IG-NH2
B20: Compound 241 (peptide)
peptide: Ac-TVFTS[Trp(6-F)]EEYLDWVGSGCRLPWNLQRIGLPC-NH2
modifications: disulfide 17-30 (inferred)
B21: Compound 229 (peptide)
peptide: Ac-MESFPGWNLV[hArg]IGLLR-NH2
SMILES: CC[C@H](C)[C@H](NC(=O)[C@H](CCCCNC(=N)N)NC(=O)[C@@H](NC(=O)[C@H](CC(C)C)NC(=O)[C@H](CC(N)=O)NC(=O)[C@H](Cc1c[nH]c2ccccc12)NC(=O)CNC(=O)[C@@H]1CCCN1C(=O)[C@H](Cc1ccccc1)NC(=O)[C@H](CO)NC(=O)[C@H](CCC(=O)O)NC(=O)[C@H](CCSC)NC(C)=O)C(C)C)C(=O)NCC(=O)N[C@@H](CC(C)C)C(=O)N[C@@H](CC(C)C)C(=O)N[C@@H](CCCNC(=N)N)C(N)=O
B22: Compound 233 (peptide)
peptide: Ac-MESFPGWNLK[hArg]IGLLR-NH2
SMILES: CC[C@H](C)[C@H](NC(=O)[C@H](CCCCNC(=N)N)NC(=O)[C@H](CCCCN)NC(=O)[C@H](CC(C)C)NC(=O)[C@H](CC(N)=O)NC(=O)[C@H](Cc1c[nH]c2ccccc12)NC(=O)CNC(=O)[C@@H]1CCCN1C(=O)[C@H](Cc1ccccc1)NC(=O)[C@H](CO)NC(=O)[C@H](CCC(=O)O)NC(=O)[C@H](CCSC)NC(C)=O)C(=O)NCC(=O)N[C@@H](CC(C)C)C(=O)N[C@@H](CC(C)C)C(=O)N[C@@H](CCCNC(=N)N)C(N)=O
B23: Compound 228 (peptide)
peptide: Ac-SFAFPGWNLV[hArg]IGLLR-NH2
SMILES: CC[C@H](C)[C@H](NC(=O)[C@H](CCCCNC(=N)N)NC(=O)[C@@H](NC(=O)[C@H](CC(C)C)NC(=O)[C@H](CC(N)=O)NC(=O)[C@H](Cc1c[nH]c2ccccc12)NC(=O)CNC(=O)[C@@H]1CCCN1C(=O)[C@H](Cc1ccccc1)NC(=O)[C@H](C)NC(=O)[C@H](Cc1ccccc1)NC(=O)[C@H](CO)NC(C)=O)C(C)C)C(=O)NCC(=O)N[C@@H](CC(C)C)C(=O)N[C@@H](CC(C)C)C(=O)N[C@@H](CCCNC(=N)N)C(N)=O
B24: Compound 232 (peptide)
peptide: Ac-SFAFPGWNLK[hArg]IGLLR-NH2
SMILES: CC[C@H](C)[C@H](NC(=O)[C@H](CCCCNC(=N)N)NC(=O)[C@H](CCCCN)NC(=O)[C@H](CC(C)C)NC(=O)[C@H](CC(N)=O)NC(=O)[C@H](Cc1c[nH]c2ccccc12)NC(=O)CNC(=O)[C@@H]1CCCN1C(=O)[C@H](Cc1ccccc1)NC(=O)[C@H](C)NC(=O)[C@H](Cc1ccccc1)NC(=O)[C@H](CO)NC(C)=O)C(=O)NCC(=O)N[C@@H](CC(C)C)C(=O)N[C@@H](CC(C)C)C(=O)N[C@@H](CCCNC(=N)N)C(N)=O

Bridge positions count the residues as written; N and C are the ends. Square brackets hold non-standard residues; d marks the D form. Ends that are not written are not given here. Trp(6-F) = N[C@@H](Cc1c[nH]c2cc(F)ccc12)C(=O)O; hArg = N=C(N)NCCCC[C@H](N)C(=O)O

T3 sequence (Q8NBP7 31-152, stated change not applied, chain 1 of 2): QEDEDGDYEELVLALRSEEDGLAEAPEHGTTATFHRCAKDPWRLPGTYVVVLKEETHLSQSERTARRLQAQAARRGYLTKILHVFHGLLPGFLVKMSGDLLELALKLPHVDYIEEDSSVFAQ
T3 sequence (Q8NBP7 other isoform, or with tags, fused parts or gaps mutant, chain 2 of 2): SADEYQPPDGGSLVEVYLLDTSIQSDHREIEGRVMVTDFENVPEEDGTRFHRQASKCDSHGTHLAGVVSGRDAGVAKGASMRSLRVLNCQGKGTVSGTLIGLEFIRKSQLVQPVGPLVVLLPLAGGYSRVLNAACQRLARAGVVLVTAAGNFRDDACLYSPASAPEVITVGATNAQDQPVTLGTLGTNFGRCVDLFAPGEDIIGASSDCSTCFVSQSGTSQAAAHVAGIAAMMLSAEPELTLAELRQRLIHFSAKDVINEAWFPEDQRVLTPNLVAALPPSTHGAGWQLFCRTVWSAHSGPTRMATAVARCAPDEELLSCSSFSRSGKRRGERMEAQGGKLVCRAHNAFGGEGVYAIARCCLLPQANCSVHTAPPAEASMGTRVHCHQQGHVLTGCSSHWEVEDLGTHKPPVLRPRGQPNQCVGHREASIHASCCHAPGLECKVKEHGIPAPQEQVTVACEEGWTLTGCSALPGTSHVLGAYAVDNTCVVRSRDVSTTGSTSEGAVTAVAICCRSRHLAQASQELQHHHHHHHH

The target of one assay is T1, PCSK9Δhelix (human, Chemically biotinylated in the phage ELISAs; the site is not given.).
T1 construct: construct M1-Q692 with engineered TEV site, cleaved by TEV; also called His-PCSK9Δhelix; open groove PCSK9Δhelix
T1 sequence (prodomain, as listed by the source mutant limits assumed, chain 1 of 2): as the sequence (Q8NBP7 31-152, stated change not applied, chain 1 of 2) above
T1 sequence (chain, as listed by the source mutant limits assumed, chain 2 of 2): as the sequence (Q8NBP7 other isoform, or with tags, fused parts or gaps mutant, chain 2 of 2) above
The assay can be described thus: phage spot ELISA. (In an ELISA, binding on a coated surface is turned into a signal by an enzyme label.)
B1: the ELISA came to 2.65 and the s/n ratio was determined as 29.2.

Regarding B2, the ELISA was determined as 3.05 and the s/n ratio worked out at 20.2.

As for B3, the ELISA was 2.29 and the s/n ratio came to 24.4.

Consider B4, for which the ELISA was 2.81 and the s/n ratio stood at 23.

Regarding B5, the ELISA came to 2.73 and the s/n ratio was determined as 25.1.

As to B6, the ELISA stood at 2.69 and the s/n ratio stood at 17.2.

For B7, the ELISA was determined as 2.74 and the s/n ratio amounted to 25.1.

B8: the ELISA was determined as 2.83 and the s/n ratio turned out to be 30.1.

B9: the ELISA was 2.31 and the s/n ratio worked out at 22.6.

In the case of B10, the ELISA is 2.43 and the s/n ratio is 14.3.

Consider B11, for which the ELISA was 2.61 and the s/n ratio is 24.4.

In the case of B12, the ELISA worked out at 2.63 and the s/n ratio was determined as 25.5.

In the case of B13, the ELISA was found to be 2.74 and the s/n ratio turned out to be 26.6.

A further assay deals with T2, proprotein convertase subtilisin/kexin type 9 (PCSK9) (human, UniProt Q8NBP7 31-692).
T2 construct: His-tagged full-length PCSK9 in TR-FRET and SPR, biotinylated in phage ELISA; secreted protein is autoprocessed (prodomain plus catalytic/CRD chain starting at S153); also called rec.PCSK9; His-PCSK9
T2 sequence (Q8NBP7 other isoform, or with tags, fused parts or gaps limits assumed): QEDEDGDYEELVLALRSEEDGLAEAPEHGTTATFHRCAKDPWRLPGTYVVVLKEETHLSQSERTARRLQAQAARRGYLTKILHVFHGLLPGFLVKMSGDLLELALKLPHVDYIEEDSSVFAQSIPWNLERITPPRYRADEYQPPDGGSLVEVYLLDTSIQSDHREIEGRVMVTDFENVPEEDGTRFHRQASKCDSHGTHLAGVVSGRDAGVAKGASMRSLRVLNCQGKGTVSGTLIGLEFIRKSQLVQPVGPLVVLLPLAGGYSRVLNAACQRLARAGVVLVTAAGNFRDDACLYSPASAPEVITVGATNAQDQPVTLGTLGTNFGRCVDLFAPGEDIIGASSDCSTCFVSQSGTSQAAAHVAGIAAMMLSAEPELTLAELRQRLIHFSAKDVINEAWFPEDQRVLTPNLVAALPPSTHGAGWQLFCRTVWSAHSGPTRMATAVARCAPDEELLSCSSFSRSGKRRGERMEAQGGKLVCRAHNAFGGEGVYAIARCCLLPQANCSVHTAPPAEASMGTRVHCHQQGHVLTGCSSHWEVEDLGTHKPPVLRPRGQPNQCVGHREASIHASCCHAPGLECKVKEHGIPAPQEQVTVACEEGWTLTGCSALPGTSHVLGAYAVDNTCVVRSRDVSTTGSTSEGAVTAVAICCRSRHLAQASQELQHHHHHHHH
Put plainly: phage spot ELISA.
For B1, the ELISA worked out at 2.71 and the s/n ratio was 25.1.

Take B2: the ELISA was determined as 3.07 and the s/n ratio turned out to be 22.1.

Turning to B3, the ELISA was found to be 2.59 and the s/n ratio was 27.

B4: the ELISA amounted to 2.72 and the s/n ratio turned out to be 23.6.

As for B5, the ELISA amounted to 2.77 and the s/n ratio worked out at 25.6.

Consider B6, for which the ELISA came to 2.79 and the s/n ratio is 19.5.

Turning to B14, the ELISA was 2.73 and the s/n ratio is 24.6.

As for B7, the ELISA was 2.66 and the s/n ratio turned out to be 23.9.

B8: the ELISA is 2.84 and the s/n ratio was 30.5.

For the molecule B9, the ELISA was 2.7 and the s/n ratio worked out at 22.9.

In the case of B10, the ELISA was found to be 2.3 and the s/n ratio came out at 19.1.

In the case of B11, the ELISA is 1.45 and the s/n ratio is 12.8.

Turning to B12, the ELISA was found to be 2.75 and the s/n ratio is 25.

As for B13, the ELISA was determined as 2.71 and the s/n ratio stood at 28.2.

Another assay addresses T3, His-tagged PCSK9Δhelix (human, UniProt Q8NBP7 31-152; Q8NBP7 168-692).
T3 construct: Construct M1-Q692 with engineered TEV site, cut by TEV protease; new N-terminus of the catalytic domain is S-A168; also called His-PCSK9Δhelix
The assay can be described thus: TR-FRET competition; His-PCSK9Δhelix, competitor Ab20.
The IC50 is the midpoint of a concentration-inhibition curve. Low readings indicate higher potency, high ones lower potency. Molecule B15 yielded an IC50 of 1.2 µM.

B16 came in with an IC50 of 0.92 µM.

In turn, B17 yielded an IC50 of 24 µM.

Molecule B18 registered an IC50 of 24 µM.

Turning to B19, the half-inhibitory concentration (IC50) is 22 µM.

B20 registered an IC50 of 0.1 µM.

Consider B21, for which the IC50 turned out to be 8.1 µM.

B22 registered an IC50 of 50 µM.

B23: the 50% inhibitory concentration (IC50) came to 13 µM.

Regarding B24, the IC50 is 13 µM.

The target in the next assay is T4, His-tagged, full-length PCSK9 (human, UniProt Q8NBP7 31-692).
T4 construct: The secreted protein is autocleaved into a prodomain and a catalytic/Cys-rich chain that starts at S153; also called His-PCSK9
T4 sequence (Q8NBP7 other isoform, or with tags, fused parts or gaps limits assumed): as above
Put plainly: TR-FRET competition; His-PCSK9, competitor EGF(A)-Fc.
Experimental: Signal generation in the PCSK9 binding assays was dependent upon the binding interaction to bring into close proximity the His-tag on the PCSK9 and the Fc-tag on the ligand. Anti-His-APC was bound to the His-tag, and anti-Fc-europium was bound to the Fc-tag.
Compounds were solubilized and dilutions were prepared in DMSO. […] The plate was centrifuged to mix the well contents and allowed to incubate for 30 min. […] The normalized TR-FRET ratios were plotted as a function of the compound concentrations, and the IC₅₀ values were determined using a 4-parameter logistic regression.
Consider B15, for which the IC50 amounted to 32 µM.

Regarding B16, the IC50 amounted to 31 µM. The IC50 values of the last two molecules are within 1.5-fold of each other.

For B17, the IC50 amounted to 2.5 µM.

In the case of B18, the IC50 was 2.3 µM.

In the case of B19, the IC50 was not below 50 µM.

The molecule B20 yielded an IC50 of 1.6 µM. This lies in the single-digit micromolar range.

As for B21, the IC50 was found to be 0.81 µM.

As for B22, the IC50 amounted to 3.1 µM.

Molecule B23 registered an IC50 of 1.3 µM.

Regarding B24, the IC50 came to 0.93 µM.

The values are drawn from patent publication US20200283478A1 (Genentech, published 2020).
